Literature values in publication PMC3727217.

Target: His87 (UniProt position 88, YGATGHPGIIP)
Test: NMR
Conditions: not stated (context implies ligand-free FKBP12; ref 47 studied both the absence and presence of ligands)

## FK506-binding protein FKBP12 (peptidyl-prolyl cis-trans isomerase FKBP1A) (Homo sapiens)
  pKa: 5.92
